Experimental data reported in patent US20200046770A1.

Biological target: PDGF-DD (active, proteolytically processed homodimer) as used in solid-phase binding and SPR (human) (UniProt Q9GZP0)
Assay: SPR (Biacore T100), PDGF-DD immobilised on CM5 chip, NKp44 18-130-His6 in the mobile phase, steady-state fit for a 1:1 interaction

Sequence of PDGF-DD (active, proteolytically processed homodimer) as used in solid-phase binding and SPR (human) (Q9GZP0 184-370 limits assumed, form in doubt): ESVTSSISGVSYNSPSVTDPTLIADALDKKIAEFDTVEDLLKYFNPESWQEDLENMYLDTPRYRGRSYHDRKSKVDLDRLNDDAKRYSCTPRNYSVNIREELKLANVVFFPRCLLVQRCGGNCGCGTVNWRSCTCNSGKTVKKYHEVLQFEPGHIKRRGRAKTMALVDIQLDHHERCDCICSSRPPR

Kd: 3.3 µM
Substance: Bacterial expressed NKp44 (residues 18-130 with a C-terminal His6 tag) (from UniProt O95944 18-130) (receptor)
